From paper PMC5967865 (eLife, 2018)

T1: human GlyT1 (Homo sapiens, UniProt P48067)
T1 construct: gene SLC6A9; Sf9 cells; LMNG/CHS; purified with Cmpd1
T1 sequence (P48067 1-706): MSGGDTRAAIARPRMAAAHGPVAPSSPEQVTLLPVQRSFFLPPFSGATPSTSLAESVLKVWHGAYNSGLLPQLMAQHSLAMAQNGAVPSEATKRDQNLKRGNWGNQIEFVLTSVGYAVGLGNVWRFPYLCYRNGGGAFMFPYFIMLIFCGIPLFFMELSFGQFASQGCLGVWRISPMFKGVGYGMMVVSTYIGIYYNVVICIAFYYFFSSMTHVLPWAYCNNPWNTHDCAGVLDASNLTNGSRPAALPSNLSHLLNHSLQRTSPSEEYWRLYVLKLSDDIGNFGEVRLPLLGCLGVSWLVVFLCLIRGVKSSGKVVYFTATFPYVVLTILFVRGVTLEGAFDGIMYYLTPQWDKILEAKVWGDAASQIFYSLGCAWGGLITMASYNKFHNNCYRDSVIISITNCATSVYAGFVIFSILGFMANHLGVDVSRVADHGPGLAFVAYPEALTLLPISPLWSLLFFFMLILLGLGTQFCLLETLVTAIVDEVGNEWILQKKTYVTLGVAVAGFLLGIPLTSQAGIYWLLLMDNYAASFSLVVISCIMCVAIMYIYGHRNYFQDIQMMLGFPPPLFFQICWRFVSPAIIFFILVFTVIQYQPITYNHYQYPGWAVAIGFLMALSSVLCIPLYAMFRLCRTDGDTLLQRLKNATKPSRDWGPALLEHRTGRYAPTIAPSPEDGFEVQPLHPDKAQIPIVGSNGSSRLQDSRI


Tests used:
human GlyT1 = target: T1, human GlyT1; format: binding; conditions: 6 nM [3H]-Org24598, labelled compound, 4°C, LMNG; citrate pH 6.4 (buffer assignment by 'respectively'); with and without sybodies
GFP [GFP: P42212] = assay: pull-down; nanobody or sybody displayed on ribosomes (PUREfrexSS; 10^6 mRNA of 3K1K spiked into 10^12 mRNA of the non-randomized convex sybody), pulled down with biotinylated GFP or MBP immobilized on magnetic beads; retrieved mRNA reverse transcribed and quantified by qPCR against the input mRNA
Human GlyT1 (human) [1] = target: Human GlyT1 (human) (UniProt P48067)
Human GlyT1 (human) [2] = target: Human GlyT1 (human) (UniProt P48067); assay: SPR; Biacore T200, 18°C; biotinylated GlyT1 (about 300 RU) on SA sensor, sybody up to 2 µM as analyte; 20 mM Citrate pH 6.4, 150 mM NaCl, 0.004% LMNG; 50 µl/min; 1:1 model; single cycle for Sb_GlyT1#6; KD from kinetics or from equilibrium as the column says
Human ENT1(2–456) [3] = target: T2, Human ENT1(2–456) (Homo sapiens, UniProt Q99808, biotin on the Avi-tag (in vivo, co-transfected E. coli BirA); glycosylation reduced with PNGaseF and Endo-alpha-N-acetylgalactosaminidase); assay: cell-based or functional assay
T2 sequence (Q99808 2-456): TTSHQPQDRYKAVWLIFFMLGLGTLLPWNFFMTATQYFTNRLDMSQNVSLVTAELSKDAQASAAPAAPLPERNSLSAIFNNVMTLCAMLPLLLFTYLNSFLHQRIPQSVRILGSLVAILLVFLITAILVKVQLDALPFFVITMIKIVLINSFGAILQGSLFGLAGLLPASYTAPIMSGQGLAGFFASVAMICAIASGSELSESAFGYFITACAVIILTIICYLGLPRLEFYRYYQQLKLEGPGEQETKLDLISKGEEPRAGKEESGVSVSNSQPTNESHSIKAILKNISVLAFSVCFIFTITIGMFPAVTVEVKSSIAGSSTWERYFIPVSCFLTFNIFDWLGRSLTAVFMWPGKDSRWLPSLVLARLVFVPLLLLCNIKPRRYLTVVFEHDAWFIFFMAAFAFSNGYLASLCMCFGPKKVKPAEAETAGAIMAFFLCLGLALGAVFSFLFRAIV

Human ENT1(2–456) [4] = target: T2, Human ENT1(2–456); assay: SPR; Biacore T200, 18°C; biotinylated ENT1 (about 1000 RU) on SA sensor, sybody up to 475 nM as analyte; 20 mM HEPES pH 7.5, 150 mM NaCl, 0.001% LMNG, 1.25 µM DOPS; 50 µl/min; 1:1 model; conditions: both partners purified

Row | SPA signal (fold increase) of [3H]-Org24598 binding at 19°C (Human GlyT1 (human) [1]) | ΔTm(SPA-TS): shift of the melting temperature of GlyT1, read by binding of [3H]-Org24598 (Human GlyT1 (human) [1]) | Kd (Human GlyT1 (human) [2]) | koff (Human GlyT1 (human) [2]) | kon (Human GlyT1 (human) [2]) | Molecule | other results
1 | 1.6 fold | 8.8 °C | 0.494 nM | 4.99e-05 s⁻¹ | 100000 M⁻¹ s⁻¹ | Sb_GlyT1#6 (VHH) VHH: QVQLVESGGGLVQAGGSLRLSCAASGFPVVYYEMYWYRQAPGKEREWVAAITSSGWYTHYADSVKGRFTISRDNAKNTVYLQMNSLKPEDTAVYYCNVKDWGASWKQYDYWGQGTQVTVS | –
2 | 1.8 fold | 10 °C | 9.18 nM | 0.000185 s⁻¹ | 20100 M⁻¹ s⁻¹ | Sb_GlyT1#7 (VHH) VHH: QVQLVESGGGLVQAGGSLRLSCAASGFPVYAYEMYWYRQAPGKEREWVAAISSSGTWAGYADSVKGRFTISRDNAKNTVYLQMNSLKPEDTAVYYCNVKDWGASWAYYDYWGQGTQVTVS | –
3 | 1.1 fold | 1.5 °C | 2520 nM | 0.0928 s⁻¹ | 36800 M⁻¹ s⁻¹ | Sb_GlyT1#2 (VHH) VHH: QVQLVESGGGLVQAGGSLRLSCAASGFPVYHRSMLWYRQAPGKEREWVAAIKSNGAGTWYADSVKGRFTISRDNAKNTVYLQMNSLKPEDTAVYYCTVGVGTNYWGQGTQVTVS | –
4 | 1.1 fold | 1.7 °C | 154 nM | – | – | Sb_GlyT1#3 (VHH) VHH: QVQLVESGGGLVQAGGSLRLSCAASGFPVWNNGMAWYRQAPGKEREWVAAIASRGRSTVYADSVKGRFTISRDNAKNTVYLQMNSLKPEDTAVYYCYVNVGSHYEGQGTQVTVS | –

Second part, the molecule before the results:

Row | Molecule | SPA signal (fold increase) of [3H]-Org24598 binding at 19°C (Human GlyT1 (human) [1]) | ΔTm(SPA-TS): shift of the melting temperature of GlyT1, read by binding of [3H]-Org24598 (Human GlyT1 (human) [1]) | Kd (Human GlyT1 (human) [2]) | koff (Human GlyT1 (human) [2]) | kon (Human GlyT1 (human) [2]) | other results
5 | CN(CC[C@@H](Oc1ccc(C(F)(F)F)cc1)c1ccccc1)CC(=O)O [Org24598] | – | – | – | – | – | scintillation proximity assay (SPA-TS) with [3H]-Org24598 (human GlyT1): SPA-TS analysis using the commercially available tritiated inhibitor Org24598
6 | 3K1K nanobody (VHH) | – | – | – | – | – | mRNA recovery (percent of input mRNA) (GFP [GFP: P42212]): 84.6%
7 | Sb_GlyT1#1 (VHH) VHH: QVQLVESGGGLVQAGGSLRLSCAASGFPVYYSHMLWYRQAPGKEREWVAAIKSLGAKTWYADSVKGRFTISRDNAKNTVYLQMNSLKPEDTAVYYCTVGVGTNYYGQGTQVTVS | 1.2 fold | 0.9 °C | 307 nM | 0.0577 s⁻¹ | 188000 M⁻¹ s⁻¹ | –
8 | Sb_GlyT1#4 (VHH) VHH: QVQLVESGGGLVQAGGSLRLSCAASGFPVYAYVMAWYRQAPGKEREWVAAIKSQGVSTYYADSVKGRFTISRDNAKNTVYLQMNSLKPEDTAVYYCYVYVGTSYTGQGTQVTVS | 1.5 fold | 2.1 °C | 476 nM | – | – | –
9 | Sb_GlyT1#5 (VHH) VHH: QVQLVESGGGLVQAGGSLRLSCAASGFPVMNRWMAWYRQAPGKEREWVAAVASYGETTRYADSVKGRFTISRDNAKNTVYLQMNSLKPEDTAVYYCNVKDWGWWTRAYDYWGQGTQVTVS | 1.5 fold | 2.6 °C | 81.9 nM | 0.0372 s⁻¹ | 454000 M⁻¹ s⁻¹ | –
10 | Sb_ENT1#1 (VHH, concave sybody; source: purified (Ni-NTA, SEC); not shown: Myc, C-terminal, kept) VHH: QVQLVESGGGLVQAGGSLRLSCAASGFPVEYNTMYWYRQAPGKEREWVATIESWGWFTWYADSVKGRFTISRDNAKNTVYLQMNSLKPEDTAVYYCEVGVGHNYAGRGTQVTVS | – | – | – | – | – | SPA signal (fold increase) of [3H]-NBTI binding at 30.1°C (Human ENT1(2–456) [3]): 7 fold; ΔTm(SPA-TS): shift of the apparent melting temperature of ENT1, read by binding of [3H]-NBTI (Human ENT1(2–456) [3]): 6.1 °C; Kd (Human ENT1(2–456) [4]): 40 nM; koff (Human ENT1(2–456) [4]): 0.00744 s⁻¹; kon (Human ENT1(2–456) [4]): 186000 M⁻¹ s⁻¹
